Reference: PMC3178605, “No Interaction of Barrier-to-Autointegration Factor (BAF) with HIV-1 MA, Cone-Rod Homeobox (Crx) or MAN1-C in Absence of DNA” (PLoS ONE, 2011)
Where no end group is shown, it is not given here.

T1: Barrier-to-autointegration factor (BAF), human, unlabeled (human, UniProt O75531 1-89)
T1 construct: Barrier-to-autointegration factor (BAF/BANF1), human; Used unlabeled in the NMR experiments; also called BANF1; BAF2 (the dimer); source: cloned and purified as described [12]
T1 sequence (looked up): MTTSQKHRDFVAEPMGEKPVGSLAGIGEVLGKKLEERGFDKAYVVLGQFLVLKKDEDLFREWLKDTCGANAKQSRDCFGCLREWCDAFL

T2: MAN1-C (UniProt Q9Y2U8 650-911)
T2 sequence: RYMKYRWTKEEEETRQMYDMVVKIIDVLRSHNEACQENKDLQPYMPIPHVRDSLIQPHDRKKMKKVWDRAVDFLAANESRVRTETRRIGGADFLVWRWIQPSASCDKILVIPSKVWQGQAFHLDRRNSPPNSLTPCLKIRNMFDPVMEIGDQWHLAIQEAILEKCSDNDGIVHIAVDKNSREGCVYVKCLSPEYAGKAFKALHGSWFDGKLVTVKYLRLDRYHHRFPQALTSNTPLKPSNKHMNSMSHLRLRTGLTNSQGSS

B1: LEM domain of MAN1 (residues 1-52), 15N-labeled (domain or fragment, UniProt Q9Y2U8 1-52, looked up)
chain: MAAAAASAPQQLSDEELFSQLRRYGLSPGPVTESTRPVYLKKLKKLREEEQQ
modifications: also: 15N-labeled
notes: MAN1 (inner nuclear membrane protein), LEM domain, residues 1-52; Uniformly 15N-labeled for NMR; also called MAN1 LEM domain; MAN-1 LEM domain; source: cloned and purified as described [12]
B2: 16 mer DNA duplex (dsDNA)
DNA 1: CCAGCACAAACACCTG
DNA 2: CAGGTGTTTGTGCTGG
B3: LEM domain of Emerin (residues 1-47), 15N-labeled (domain or fragment, UniProt P50402 1-47, looked up)
chain: MDNYADLSDTELTTLLRRYNIPHGPVVGSTRRLYEKKIFEYETQRRR
modifications: also: 15N-labeled
notes: Emerin, LEM domain, residues 1-47; Uniformly 15N-labeled for NMR; also called Emerin LEM domain; source: cloned and purified as described [12]

Key:
[1] = target: T1, Barrier-to-autointegration factor …; assay: NMR titration; 1H-15N HSQC of 50 µM 15N-labeled LEM domain without and with 200 µM unlabeled BAF2; 25 mM potassium phosphate pH 6.5, 200 mM NaCl, 2 mM 2-mercaptoethanol, 27°C; details: both partners purified
MAN1-C = target: T2, MAN1-C; assay: NMR (1H-15N HSQC); 150 mM NaCl?; NMR: 25 mM potassium phosphate pH 6.5, 2 mM 2-mercaptoethanol, 95% H2O/5% D2O, 200 mM NaCl (Crx samples) or 150 mM NaCl (MAN1-C samples); salt for MA and temperature not given. The pull-down used undefined sonicated salmon sperm DNA (not listed); details: protein: recombinant; tags: His6-thioredoxin removed by thrombin; blunt

Row | Binder | binding result [1] | binding result (MAN1-C)
1 | B1 | binds | 
2 | B2 |  | binds
3 | B3 | binds | 
